# In the Human Domainome abundance scans (Beltran et al. 2025):
# ± gives the uncertainty stated by the source.
# B1: Serine/threonine-protein kinase LATS1, residues 98 to 141; numbered along this chain, O95835 (parent)
# chain: TSEVNPQMLQDLQAAGFDEDMVIQALQKTNNRSIEAAIEFISKM
# Variants of: B1
# Test: abundance fitness (aPCA) (normalised: wild type 0, dead -1); higher = more abundant; growth selection in yeast, the domain comes from the species named
# Conditions: Homo sapiens
row,Variant,abundance fitness
1,A36K,-0.21 ± 0.05
2,A36W,-0.825 ± 0.06
3,A36N,-0.327 ± 0.13
4,A36T,-0.258 ± 0.053
5,A36L,-0.388 ± 0.034
6,A36G,-0.195 ± 0.031
7,A36F,-0.77 ± 0.085
8,A36D,-0.068 ± 0.058
9,A36H,-0.206 ± 0.056
10,A36M,-0.316 ± 0.05
11,A36R,-0.404 ± 0.032
12,A36Q,-0.267 ± 0.056
13,A36P,-0.36 ± 0.04
14,A36S,-0.073 ± 0.05
15,A36C,-0.169 ± 0.041
16,A36Y,-0.632 ± 0.092
17,E35C,-0.485 ± 0.066
18,E35M,-0.307 ± 0.24
19,E35G,-0.173 ± 0.031
20,E35K,-0.169 ± 0.047
21,E35T,-0.158 ± 0.053
22,E35V,-0.468 ± 0.04
23,E35D,0.005 ± 0.054
24,E35F,-0.468 ± 0.12

row,Variant,abundance fitness
1,E35P,-0.164 ± 0.055
2,E35H,-0.151 ± 0.089
3,E35S,-0.115 ± 0.042
4,E35N,-0.204 ± 0.06
5,E35L,-0.541 ± 0.059
6,E35Q,-0.141 ± 0.041
7,E35W,-0.473 ± 0.049
8,E35R,-0.263 ± 0.035
9,F40R,-0.248 ± 0.033
10,F40W,0.075 ± 0.038
11,F40V,-0.097 ± 0.036
12,F40S,-0.131 ± 0.037
13,F40A,-0.018 ± 0.035
14,F40M,-0.042 ± 0.038
15,F40G,-0.163 ± 0.032
16,F40I,-0.171 ± 0.057
17,F40T,-0.16 ± 0.045
18,F40P,-0.157 ± 0.055
19,F40E,0.103 ± 0.037
20,F40Q,-0.068 ± 0.046
21,F40C,-0.016 ± 0.058
22,F40D,-0.055 ± 0.058
23,F40K,-0.177 ± 0.048
24,E39P,-0.483 ± 0.16

row,Variant,abundance fitness
1,E39Q,-0.166 ± 0.042
2,E39M,-0.286 ± 0.093
3,E39S,-0.146 ± 0.036
4,E39C,-0.361 ± 0.075
5,E39F,-0.884 ± 0.13
6,E39K,-0.115 ± 0.056
7,E39D,-0.113 ± 0.089
8,E39G,-0.217 ± 0.03
9,E39R,-0.224 ± 0.033
10,E39N,-0.111 ± 0.069
11,E39W,-0.728 ± 0.051
12,E39T,-0.237 ± 0.047
13,E39A,-0.103 ± 0.035
14,E39H,-0.084 ± 0.082
15,E39V,-0.717 ± 0.047
16,S42R,0.048 ± 0.033
17,S42F,-0.229 ± 0.11
18,S42V,-0.219 ± 0.035
19,S42A,-0.023 ± 0.033
20,S42E,0.136 ± 0.038
21,S42Q,0.127 ± 0.052
22,S42D,0.033 ± 0.05
23,S42T,0.103 ± 0.056
24,S42G,-0.002 ± 0.03

row,Variant,abundance fitness
1,S42L,-0.248 ± 0.045
2,S42H,0.054 ± 0.071
3,S42P,-0.401 ± 0.044
4,S42C,-0.258 ± 0.11
5,S42Y,-0.142 ± 0.061
6,S42W,-0.14 ± 0.04
7,S42K,0.055 ± 0.077
8,K43A,0.034 ± 0.036
9,K43C,-0.156 ± 0.093
10,K43E,0.133 ± 0.042
11,K43I,-0.435 ± 0.14
12,K43L,-0.117 ± 0.041
13,K43N,-0.038 ± 0.18
14,K43D,-0.03 ± 0.05
15,K43H,0.169 ± 0.14
16,K43G,-0.036 ± 0.033
17,K43M,-0.071 ± 0.088
18,I38Q,-0.021 ± 0.048
19,I38E,-0.007 ± 0.048
20,I38M,-0.016 ± 0.045
21,I38G,-0.169 ± 0.035
22,I38A,-0.048 ± 0.037
23,I38R,0.003 ± 0.03
24,I38S,-0.113 ± 0.042

row,Variant,abundance fitness
1,I38P,-0.147 ± 0.056
2,I38L,-0.078 ± 0.037
3,I38F,-0.42 ± 0.072
4,I38W,-0.339 ± 0.043
5,I38K,0.055 ± 0.048
6,I38C,-0.119 ± 0.043
7,I38V,-0.024 ± 0.038
8,I38H,-0.203 ± 0.076
9,I34L,-0.005 ± 0.037
10,I34A,-0.043 ± 0.034
11,I34N,-0.123 ± 0.22
12,I34Y,-0.468 ± 0.15
13,I34W,-0.505 ± 0.06
14,I34M,0.04 ± 0.037
15,I34Q,-0.09 ± 0.042
16,I34D,-0.257 ± 0.071
17,I34F,-0.192 ± 0.074
18,I34P,-0.051 ± 0.045
19,I34S,-0.189 ± 0.044
20,I34V,0.026 ± 0.034
21,I34C,-0.02 ± 0.043
22,I34E,-0.068 ± 0.045
23,I34T,0.046 ± 0.044
24,I34H,-0.077 ± 0.06

row,Variant,abundance fitness
1,I34G,-0.266 ± 0.033
2,S33M,-0.96 ± 0.083
3,S33Y,-0.735 ± 0.14
4,S33W,-1.12 ± 0.11
5,S33L,-1.25 ± 0.092
6,S33Q,-1.02 ± 0.11
7,S33N,-0.56 ± 0.3
8,S33V,-1.29 ± 0.13
9,S33R,-0.907 ± 0.058
10,S33H,-0.934 ± 0.11
11,S33K,-0.528 ± 0.097
12,S33P,-0.627 ± 0.06
13,S33T,-0.555 ± 0.063
14,S33G,-0.136 ± 0.035
15,I41K,-0.255 ± 0.052
16,I41L,-0.046 ± 0.039
17,I41P,-0.232 ± 0.06
18,I41V,-0.411 ± 0.035
19,I41H,-0.272 ± 0.07
20,I41S,-0.217 ± 0.043
21,I41F,-0.525 ± 0.1
22,I41D,-0.11 ± 0.045
23,I41R,-0.361 ± 0.031
24,I41W,-0.648 ± 0.057

row,Variant,abundance fitness
1,I41C,-0.225 ± 0.056
2,I41N,-0.429 ± 0.23
3,I41Q,-0.286 ± 0.049
4,I41G,-0.282 ± 0.032
5,I41A,-0.282 ± 0.035
6,I41M,0.046 ± 0.048
7,I41E,-0.165 ± 0.042
8,I41Y,-0.434 ± 0.068
9,A37Y,-0.762 ± 0.19
10,A37N,-0.446 ± 0.098
11,A37K,-1.03 ± 0.29
12,A37Q,-0.428 ± 0.051
13,A37L,-0.728 ± 0.06
14,A37S,-0.441 ± 0.05
15,A37R,-0.649 ± 0.046
16,A37D,-0.43 ± 0.055
17,A37H,-0.621 ± 0.18
18,A37C,-0.376 ± 0.058
19,A37G,-0.401 ± 0.032
20,A37W,-1.17 ± 0.09
21,A37V,-0.453 ± 0.037
22,A37T,-0.391 ± 0.08
23,A37P,-0.42 ± 0.1
